Test results published in patent publication US20250092426, “CAS ENDONUCLEASES AND RELATED METHODS” (Flagship Pioneering Innovations VII, LLC, published 2025).

Biological target: T1, CasEnd-34 (synthetic construct)
T1 chain: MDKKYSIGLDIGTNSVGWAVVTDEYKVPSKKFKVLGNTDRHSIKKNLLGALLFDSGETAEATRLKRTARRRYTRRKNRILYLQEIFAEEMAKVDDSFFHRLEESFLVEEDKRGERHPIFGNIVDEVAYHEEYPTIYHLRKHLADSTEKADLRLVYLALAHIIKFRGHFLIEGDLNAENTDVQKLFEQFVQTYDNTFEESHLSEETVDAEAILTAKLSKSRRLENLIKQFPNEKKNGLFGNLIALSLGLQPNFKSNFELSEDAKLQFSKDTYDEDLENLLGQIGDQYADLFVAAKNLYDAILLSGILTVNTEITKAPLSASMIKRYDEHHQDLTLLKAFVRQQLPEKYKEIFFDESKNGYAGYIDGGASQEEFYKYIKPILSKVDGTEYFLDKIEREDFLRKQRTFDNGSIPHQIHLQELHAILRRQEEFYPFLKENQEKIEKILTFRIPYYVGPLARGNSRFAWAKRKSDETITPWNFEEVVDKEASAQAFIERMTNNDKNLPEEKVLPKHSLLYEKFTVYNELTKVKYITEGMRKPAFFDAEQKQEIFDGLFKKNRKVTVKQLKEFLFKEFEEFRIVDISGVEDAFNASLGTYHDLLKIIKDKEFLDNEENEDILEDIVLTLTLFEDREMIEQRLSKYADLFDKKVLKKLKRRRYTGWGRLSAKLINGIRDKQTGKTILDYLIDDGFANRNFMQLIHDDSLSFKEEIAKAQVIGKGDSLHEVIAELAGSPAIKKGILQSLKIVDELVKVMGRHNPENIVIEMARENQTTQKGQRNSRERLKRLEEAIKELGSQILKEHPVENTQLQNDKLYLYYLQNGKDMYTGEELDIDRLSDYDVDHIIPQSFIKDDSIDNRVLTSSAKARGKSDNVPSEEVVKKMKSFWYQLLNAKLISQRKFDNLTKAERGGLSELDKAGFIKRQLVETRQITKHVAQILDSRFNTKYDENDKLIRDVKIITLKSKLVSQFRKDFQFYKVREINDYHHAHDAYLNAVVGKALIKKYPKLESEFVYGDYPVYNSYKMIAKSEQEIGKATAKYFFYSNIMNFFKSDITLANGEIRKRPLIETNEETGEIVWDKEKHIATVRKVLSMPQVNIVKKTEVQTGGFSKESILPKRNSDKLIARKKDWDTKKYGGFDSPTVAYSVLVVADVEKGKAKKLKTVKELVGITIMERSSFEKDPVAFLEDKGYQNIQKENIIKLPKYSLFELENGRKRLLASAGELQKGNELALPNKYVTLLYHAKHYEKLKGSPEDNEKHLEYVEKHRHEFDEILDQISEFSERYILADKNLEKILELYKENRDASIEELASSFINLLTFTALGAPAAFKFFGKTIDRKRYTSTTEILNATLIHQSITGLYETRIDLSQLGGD
Test: cell_activity; +++; HEK293T; PAM not stated
In short: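 Editing activity was scored as the fraction of GFP+ cells on day 4 by flow cytometry. BFP-expressing HEK293T cells (250,000) received by nucleofection 200 ng plasmid for the RT-Cas fusion protein and 200 ng template RNA plasmid designed to convert BFP to GFP.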

B1: BFP-to-GFP template RNA ; BFP reporter protospacer (ssRNA ; dsDNA)
RNA: GCCGAAGCACUGCACGCCGUGUUUUAGAGCUAGAAAUAGCAAGUUAAAAUAAGGCUAGUCCGUUAUCAACUUGAAAAAGUGGCACCGAGUCGGUGCACCCUGACGUACGGCGUGCAGUGCUU
DNA 1: GCCGAAGCACTGCACGCCGT
DNA 2: ACGGCGTGCAGTGCTTCGGC
For B1, the activity was ≥ 100 % of reference.
